Measurements as given in publication PMC6386368, “Multimerization of Homo sapiens TRPA1 ion channel cytoplasmic domains” (PLoS ONE, 2019).

B1: MBPCC1: maltose-binding protein fusion of the human TRPA1 C-terminal coiled-coil CC1 (amino acids A1036-T1078) (domain or fragment, UniProt O75762 1036-1078, looked up)
chain: ADKSLEMEILKQKYRLKDLTFLLEKQHELIKLIIQKMEIISET
notes: human TRPA1 C-terminal coiled-coil CC1, amino acids A1036-T1078; source: E. coli BL21(DE3), purified (amylose resin, SEC); also co-expressed with ARD in BL21(DE3), in cleared lysate; not shown: poly-histidine, N-terminal, kept; MBP, N-terminal, kept

Tests used:
[1] = biological target: the molecule itself; experiment: SEC-MALS; MBPCC1 diluted to 1 mg/ul (~20 uM) as printed, absence of IP6, Superdex 200 column
[2] = biological target: the molecule itself; experiment: SEC-MALS; MBPCC1 at 15 mg/ml (~300 uM), absence of IP6, Superdex 200 column
[3] = biological target: B1; experiment: pull-down; amylose resin co-purification from cleared lysate of bacteria co-expressing ARD and MBPCC1; incubation and 4 washes at 4 C, Buffer A1T, with or without IP6 and/or AITC; anti-His Western blot; settings: partners not purified

Row | Binder | stoichiometry N [1] | stoichiometry N [2] | ARD:CC ratio [3]
1 | B1 | 3 | 4 | 
2 | TRPA1 ARD construct (N-terminal ankyrin repeat domains, amino acids 446-639) (domain or fragment, human, UniProt O75762 446-639, looked up, human TRPA1 ankyrin repeat domains with resolvable density in the cryoEM structure, amino acids 446-639; Cloned into pET28b (Nhe I and Sac I) in frame with an N-terminal poly-histidine tag; also called ARDs; N-terminal ARD; source: E. coli BL21(DE3), co-expressed with MBPCC1, in cleared lysate; not shown: poly-histidine, N-terminal, kept) KKSPLHFAASYGRINTCQRLLQDISDTRLLNEGDLHGMTPLHLAAKNGHDKVVQLLLKKGALFLSDHNGWTALHHASMGGYTQTMKVILDTNLKCTDRLDEDGNTALHFAAREGHAKAVALLLSHNADIVLNKQQASFLHLALHNKRKEVVLTIIRSKRWDECLKIFSHNSPGNKCPITEMIEYLPECMKVLLD |  |  | ~0.3
